Starred links: 1 amine or outer side, 2 acyl side, 3 side chain; linkers in the order of their positions; H or OH if unused. Positions of bridges follow the written chain, without caps; N, C: chain ends. Non-standard residues stand in square brackets, D forms with d. Primed or numbered codes have the meaning given here. *: point of attachment. Af3(H-pGlu) = 3-aminophenylalanine with L-pyroglutamyl on the ring amine, O=C1CC[C@@H](C(=O)Nc2cccc(C[C@H](N[*:1])C(=O)[*:2])c2)N1; Af3(Im5) = 3-aminophenylalanine with 1H-imidazole-5-carbonyl on the ring amine, O=C(Nc1cccc(C[C@H](N[*:1])C(=O)[*:2])c1)c1cnc[nH]1; Af3(Oa5) = 3-aminophenylalanine with 1,3-oxazole-5-carbonyl on the ring amine, O=C(Nc1cccc(C[C@H](N[*:1])C(=O)[*:2])c1)c1cnco1; Af3(H2N-Succinyl) = 3-aminophenylalanine with succinamoyl on the ring amine, NC(=O)CCC(=O)Nc1cccc(C[C@H](N[*:1])C(=O)[*:2])c1; Aph(Cp) = 4-aminophenylalanine with cyclopentanecarbonyl on the ring amine, O=C(Nc1ccc(C[C@H](N[*:1])C(=O)[*:2])cc1)C1CCCC1; APAc″ = 2-(4-(amino)piperidin-1-yl)acetic acid, NC1CCN(CC(=O)*)CC1; DOTA = O=C(O)CN1CCN(CC(=O)O)CCN(CC(=O)*)CCN(CC(=O)O)CC1; NGly(3-aminopropyl) = O=C(CN(CCCN[*:3])[*:1])[*:2]; Phe(4-tBu) = CC(C)(C)c1ccc(C[C@H](N)C(=O)O)cc1; Pyridine(2,6-diCH2) = c1cc(C[*:1])nc(C[*:2])c1; mXylylene = c1cc(C[*:1])cc(C[*:2])c1; Orn(Me2) = CN(C)CCC[C@H](N)C(=O)O; αMeL = CC(C)C[C@](C)(N)C(=O)O; Ac6c = NC1(C(=O)O)CCCCC1; Orn = NCCC[C@H](N)C(=O)O; APAc = not defined here; Dab = NCC[C@H](N)C(=O)O
B1: 3BP-3961 (peptide)
peptide: Ac-VYCE[dP]KW[Ac6c]EWSC-NH2
modifications: linker 3-12 via mXylylene; lactam 6-9
SMILES: CC(=O)N[C@H](C(=O)N[C@@H](Cc1ccc(O)cc1)C(=O)N[C@H]1CSCc2cccc(c2)CSC[C@@H](C(N)=O)NC(=O)[C@H](CO)NC(=O)[C@H](Cc2c[nH]c3ccccc23)NC(=O)[C@@H]2CCC(=O)NCCCC[C@H](NC(=O)[C@H]3CCCN3C(=O)[C@H](CCC(=O)O)NC1=O)C(=O)N[C@@H](Cc1c[nH]c3ccccc13)C(=O)NC1(CCCCC1)C(=O)N2)C(C)C
B2: 3BP-3958 (peptide)
peptide: Ac-VYCE[dP][Orn]WLEWSC-NH2
modifications: linker 3-12 via mXylylene; lactam 6-9
SMILES: CC(=O)N[C@H](C(=O)N[C@@H](Cc1ccc(O)cc1)C(=O)N[C@H]1CSCc2cccc(c2)CSC[C@@H](C(N)=O)NC(=O)[C@H](CO)NC(=O)[C@H](Cc2c[nH]c3ccccc23)NC(=O)[C@@H]2CCC(=O)NCCC[C@H](NC(=O)[C@H]3CCCN3C(=O)[C@H](CCC(=O)O)NC1=O)C(=O)N[C@@H](Cc1c[nH]c3ccccc13)C(=O)N[C@@H](CC(C)C)C(=O)N2)C(C)C
B3: 3BP-3960 (peptide)
peptide: Ac-VYCE[dP][Dab]WLEWSC-NH2
modifications: linker 3-12 via mXylylene; lactam 6-9
SMILES: CC(=O)N[C@H](C(=O)N[C@@H](Cc1ccc(O)cc1)C(=O)N[C@H]1CSCc2cccc(c2)CSC[C@@H](C(N)=O)NC(=O)[C@H](CO)NC(=O)[C@H](Cc2c[nH]c3ccccc23)NC(=O)[C@@H]2CCC(=O)NCC[C@H](NC(=O)[C@H]3CCCN3C(=O)[C@H](CCC(=O)O)NC1=O)C(=O)N[C@@H](Cc1c[nH]c3ccccc13)C(=O)N[C@@H](CC(C)C)C(=O)N2)C(C)C

The binders below were run against human carbonic anhydrase 9 (CAIX) (human, UniProt Q16790 38-459) (assay: FACS competition on HT-29 cells, competitor tracer 3BP-2776; category B = pIC50 7.1-8.0).
Description: CAIX-expressing human HT-29 colorectal cancer cells (DSMZ, RRID: CVCL_0320) were cultured in McCoys's 5A modified medium (Biochrom, #F1015) including 10% fetal calf serum (FCS), 2 mM L-glutamine, 100 U/ml penicillin and 100 μg/mL streptomycin. Cells were detached with Accutase (Biolegend, #423201) and washed in FACS buffer (PBS including 1% FCS). Cells were diluted in FACS buffer to a final concentration of 500.000 cells per ml. 200 μL of the cell suspension were transferred to a u-shaped non-binding 96-well plate (Greiner) and cells were washed in ice-cold FACS buffer.
When biotinylated compounds were used an additional incubation step with 1 μg/mL APC-Streptavidin (Miltenyi; #130-106-791) in 50 μL FACS buffer for 30 minutes on ice was performed.
Cells were washed twice with ice-cold FACS buffer and analyzed in an Attune NxT flow cytometer (Thermo Fisher). Median fluorescence intensities (MFI) of the APC/Cy5-channel were calculated by Attune NxT software.

pIC50, 7.1 to 8 pic50:
{DOTA-APAc″}-VYCE[dP]D[Af3(Im5)]LTWSC-NH2 (linker 3-12 via mXylylene) [3BP-4240], {DOTA-APAc}-VYCE[dP]DW[αMeL]TWSC-NH2 (linker 3-12 via mXylylene; reading uncertain) [3BP-4106], B1, {DOTA-APAc″}-VYCE[dP]D[Aph(Cp)]LTWSC-NH2 (linker 3-12 via mXylylene) [3BP-4173], B2, {DOTA-APAc}-VYCE[dP][Orn(Me2)]WLTWSC-NH2 (linker 3-12 via mXylylene; reading uncertain) [3BP-4098], {DOTA-APAc″}-VYCEG[NGly(3-aminopropyl)]WLEWSC-NH2 (linker 3-12 via mXylylene; lactam 6-9) [3BP-4252], {DOTA-APAc″}-VYCE[dP]D[Af3(Oa5)]LTWSC-NH2 (linker 3-12 via mXylylene) [3BP-4239], {DOTA-APAc″}-VYCE[dP]D[Af3(H2N-Succinyl)]LTWSC-NH2 (linker 3-12 via mXylylene) [3BP-4238], {DOTA-APAc″}-VYCE[dP]D[Phe(4-tBu)]LTWSC-NH2 (linker 3-12 via mXylylene) [3BP-4160], {DOTA-APAc″}-VYCE[dP]DWLTWSC-NH2 (linker 3-12 via Pyridine(2,6-diCH2)) [3BP-4140], B3, {DOTA-APAc″}-VYCE[dP]D[Af3(H-pGlu)]LTWSC-NH2 (linker 3-12 via mXylylene) [3BP-4241]

— patent US20250339569A1 (3B PHARMACEUTICALS, published 2025)
